Laboratory results taken from the supplement of paper PMC12338614.
± gives the uncertainty stated by the source.

B1: library; numbered along this chain (parent)
chain: MEVVDPQQLGMFTEGELMSVGMDTFIHRIDSTEVIYQPRRKRAKLIGKYLMGDLLGEGSYGKVKEVLDSETLCRRAVKILKKKKLRRIPNGEANVKKEIQLLRRLRHKNVIQLVDVLYNEEKQKMYMVMEYCVCGMQEMLDSVPEKRFPVCQAHGYFCQLIDGLEYLHSQGIVHKDIKPGNLLLTTGGTLKISDLGVAEALHPFAADDTCRTSQGSPAFQPPEIANGLDTFSGFKVDIWSAGVTLYNITTGLYPFEGDNIYKLFENIGKGSYAIPGDCGPPLSDLLKGMLEYEPAKRFSIRQIRQHSWFRKKHPPAEAPVPIPPSPDTKDRWRSMTVVPYLEDLHGADEDEDLFDIEDDIIYTQDFTVPGQVPEEEASHNGQRRGLPKAVCMNGTEAAQLSTKSRAEGRAPNPARKACSASSKIRRLSACKQQ

Variants of: B1
Assay: STK11 functional score (HeLa growth suppression), rescaled enrichment; synonymous median = 1, nonsense median = 0 (normalised score)
Details: with HeLa; variant type: missense
Summary of the method: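 Codon-randomised (POPCode) libraries of codon-optimised STK11 were integrated by Bxb1 at an AAVS1 landing pad in HeLa, in three regions each transfected three times. Integrants (BFP-negative, mCherry-positive) were FACS-sorted 4–5 days after electroporation and grown about two weeks; tiled gDNA amplicons were sequenced on NextSeq (~2 million reads per tile). The functional score is the wild-type-corrected post/pre-selection log ratio, rescaled to synonymous and nonsense medians, merged over codons and replicate transfections, with bootstrapped error.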

With MEVVDPQQLGMFTEGELMSVGMDTFIHRIDSTEVIYQPRRKRAKLIGKYLMGDLLGEGSYGKVKEVLDSETLCRRAVKILKKKKLRRIPNGEANVKKEIQLLRRLRHKNVIQLVDVLYNEEKQKMYMVMEYCVCGMQEMLDSVPEKRFPVCQAHGYFCQLIDGLEYLHSQGIVHKDIKPGNLLLTTGGTLKISDLGVAEALHPFAADDTCRTSQGSPAFQPPEIANGLDTFSGFKVDIWSAGVTLYNITTGLYPFEGDNIYKLFENIGKGSYAIPGDCGPPLSDLLKGMLEYEPAKRFSIRQIRQHSWFRKKHPPAEAPVPIPPSPDTKDRWRSMTVVPYLEDLHGADEDEDLFDIEDDYIYTQDFTVPGQVPEEEASHNGQRRGLPKAVCMNGTEAAQLSTKSRAEGRAPNPARKACSASSKIRRLSACKQQ [I360Y] as the variant, how does the STK11 functional score read?
The STK11 functional score was 1.52 ± 0.2.

How did the STK11 functional score turn out when MEVVDPQQLGMFTEGELMSVGMDTFIHRIDSTEVIYQPRRKRAKLIGKYLMGDLLGEGSYGKVKEVLDSETLCRRAVKILKKKKLRRIPNGEANVKKEIQLLRRLRHKNVIQLVDVLYNEEKQKMYMVMEYCVCGMQEMLDSVPEKRFPVCQAHGYFCQLIDGLEYLHSQGIVHKDIKPGNLLLTTGGTLKISDLGVAEALHPFAADDTCRTSQGSPAFQPPEIANGLDTFSGFKVDIWSAGVTLYNITTGLYPFEGDNIYKLFENIGKGSYAIPGDCGPPLSDLLKGMLEYEPAKRFSIRQIRQHSWFRKKHPPAEAPVPIPPSPDTKDRWRSMTVVPYLEDLHGADEDEDLFDIEDDWIYTQDFTVPGQVPEEEASHNGQRRGLPKAVCMNGTEAAQLSTKSRAEGRAPNPARKACSASSKIRRLSACKQQ [I360W] was run?
Its STK11 functional score is 0.807 ± 0.13.

With MEVVDPQQLGMFTEGELMSVGMDTFIHRIDSTEVIYQPRRKRAKLIGKYLMGDLLGEGSYGKVKEVLDSETLCRRAVKILKKKKLRRIPNGEANVKKEIQLLRRLRHKNVIQLVDVLYNEEKQKMYMVMEYCVCGMQEMLDSVPEKRFPVCQAHGYFCQLIDGLEYLHSQGIVHKDIKPGNLLLTTGGTLKISDLGVAEALHPFAADDTCRTSQGSPAFQPPEIANGLDTFSGFKVDIWSAGVTLYNITTGLYPFEGDNIYKLFENIGKGSYAIPGDCGPPLSDLLKGMLEYEPAKRFSIRQIRQHSWFRKKHPPAEAPVPIPPSPDTKDRWRSMTVVPYLEDLHGADEDEDLFDIEDDRIYTQDFTVPGQVPEEEASHNGQRRGLPKAVCMNGTEAAQLSTKSRAEGRAPNPARKACSASSKIRRLSACKQQ [I360R] as the variant, how does the STK11 functional score read?
The STK11 functional score was 0.694 ± 0.27.

For MEVVDPQQLGMFTEGELMSVGMDTFIHRIDSTEVIYQPRRKRAKLIGKYLMGDLLGEGSYGKVKEVLDSETLCRRAVKILKKKKLRRIPNGEANVKKEIQLLRRLRHKNVIQLVDVLYNEEKQKMYMVMEYCVCGMQEMLDSVPEKRFPVCQAHGYFCQLIDGLEYLHSQGIVHKDIKPGNLLLTTGGTLKISDLGVAEALHPFAADDTCRTSQGSPAFQPPEIANGLDTFSGFKVDIWSAGVTLYNITTGLYPFEGDNIYKLFENIGKGSYAIPGDCGPPLSDLLKGMLEYEPAKRFSIRQIRQHSWFRKKHPPAEAPVPIPPSPDTKDRWRSMTVVPYLEDLHGADEDEDLFDIEDDVIYTQDFTVPGQVPEEEASHNGQRRGLPKAVCMNGTEAAQLSTKSRAEGRAPNPARKACSASSKIRRLSACKQQ [I360V], which STK11 functional score is on record?
Its STK11 functional score is 1.49 ± 0.28.

With MEVVDPQQLGMFTEGELMSVGMDTFIHRIDSTEVIYQPRRKRAKLIGKYLMGDLLGEGSYGKVKEVLDSETLCRRAVKILKKKKLRRIPNGEANVKKEIQLLRRLRHKNVIQLVDVLYNEEKQKMYMVMEYCVCGMQEMLDSVPEKRFPVCQAHGYFCQLIDGLEYLHSQGIVHKDIKPGNLLLTTGGTLKISDLGVAEALHPFAADDTCRTSQGSPAFQPPEIANGLDTFSGFKVDIWSAGVTLYNITTGLYPFEGDNIYKLFENIGKGSYAIPGDCGPPLSDLLKGMLEYEPAKRFSIRQIRQHSWFRKKHPPAEAPVPIPPSPDTKDRWRSMTVVPYLEDLHGADEDEDLFDIEDDSIYTQDFTVPGQVPEEEASHNGQRRGLPKAVCMNGTEAAQLSTKSRAEGRAPNPARKACSASSKIRRLSACKQQ [I360S] as the variant, how does the STK11 functional score read?
Its STK11 functional score is 1.11 ± 0.38.

MEVVDPQQLGMFTEGELMSVGMDTFIHRIDSTEVIYQPRRKRAKLIGKYLMGDLLGEGSYGKVKEVLDSETLCRRAVKILKKKKLRRIPNGEANVKKEIQLLRRLRHKNVIQLVDVLYNEEKQKMYMVMEYCVCGMQEMLDSVPEKRFPVCQAHGYFCQLIDGLEYLHSQGIVHKDIKPGNLLLTTGGTLKISDLGVAEALHPFAADDTCRTSQGSPAFQPPEIANGLDTFSGFKVDIWSAGVTLYNITTGLYPFEGDNIYKLFENIGKGSYAIPGDCGPPLSDLLKGMLEYEPAKRFSIRQIRQHSWFRKKHPPAEAPVPIPPSPDTKDRWRSMTVVPYLEDLHGADEDEDLFDIEDDIAYTQDFTVPGQVPEEEASHNGQRRGLPKAVCMNGTEAAQLSTKSRAEGRAPNPARKACSASSKIRRLSACKQQ [I361A] was tested. Which STK11 functional score did it give?
Its STK11 functional score is 1.47 ± 0.26.

MEVVDPQQLGMFTEGELMSVGMDTFIHRIDSTEVIYQPRRKRAKLIGKYLMGDLLGEGSYGKVKEVLDSETLCRRAVKILKKKKLRRIPNGEANVKKEIQLLRRLRHKNVIQLVDVLYNEEKQKMYMVMEYCVCGMQEMLDSVPEKRFPVCQAHGYFCQLIDGLEYLHSQGIVHKDIKPGNLLLTTGGTLKISDLGVAEALHPFAADDTCRTSQGSPAFQPPEIANGLDTFSGFKVDIWSAGVTLYNITTGLYPFEGDNIYKLFENIGKGSYAIPGDCGPPLSDLLKGMLEYEPAKRFSIRQIRQHSWFRKKHPPAEAPVPIPPSPDTKDRWRSMTVVPYLEDLHGADEDEDLFDIEDDIDYTQDFTVPGQVPEEEASHNGQRRGLPKAVCMNGTEAAQLSTKSRAEGRAPNPARKACSASSKIRRLSACKQQ [I361D] was tested. Which STK11 functional score did it give?
Its STK11 functional score is 1.5 ± 0.17.
